The target in one data set is BjaI (Bradyrhizobium diazoefficiens, UniProt Q89VI2). Kind of data set: DCPIP microplate assay.
The next data set addresses Sfp (Bacillus subtilis, UniProt P39135). Kind of data set: enzymatic transfer of octyl-phosphopantetheine to apo-ACP, mass spectrum of product. Format: biochemical. The conditions noted are these: co-substrate E. coli apo-AcpP; preparative synthesis, 20:1 acyl-CoA to ACP.
Substrate in data set [1]: C[S+](CC[C@H](N)C(=O)O)C[C@H]1O[C@@H](n2cnc3c(N)ncnc32)[C@H](O)[C@@H]1O
In words: purified protein. The settings on record: 250 µM isovaleryl-CoA, HEPES, final pH 7.3.

Substrate in data set [2]: CC(C)CC(=O)SCCNC(=O)CCNC(=O)[C@H](O)C(C)(C)COP(=O)(O)OP(=O)(O)OC[C@H]1O[C@@H](n2cnc3c(N)ncnc32)[C@H](O)[C@@H]1OP(=O)(O)O
In words: purified protein. The conditions noted are these: 500 µM SAM, 1 µM BjaI, HEPES, final pH 7.3.

Sfp, sequence (P39135 whole entry): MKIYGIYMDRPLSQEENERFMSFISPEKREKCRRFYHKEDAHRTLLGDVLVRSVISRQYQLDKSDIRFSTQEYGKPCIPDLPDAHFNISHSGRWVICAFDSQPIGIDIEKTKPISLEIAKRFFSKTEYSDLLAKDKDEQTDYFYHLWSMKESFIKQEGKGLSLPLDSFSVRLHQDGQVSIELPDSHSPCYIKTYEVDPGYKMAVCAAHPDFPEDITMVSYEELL

For `CC(C)CCSCCNC(=O)CCNC(=O)[C@H](O)C(C)(C)COP(=O)(O)OP(=O)(O)OC[C@H]1O[C@@H](n2cnc3c(N)ncnc32)[C@H](O)[C@@H]1OP(=O)(O)O` [isopentyl-CoA], the Ki on BjaI stood at 21 ± 1 µM.
Take `CCCCCCCCSCCNC(=O)CCNC(=O)[C@H](O)C(C)(C)COP(=O)(O)OP(=O)(O)OC[C@H]1O[C@@H](n2cnc3c(N)ncnc32)[C@H](O)[C@@H]1OP(=O)(O)O` [octyl-CoA sulfide]: the “enzymatic transfer of octyl-phosphopantetheine to apo-ACP, mass spectrum of prod” value at Sfp was “enzymatic transfer of the alkyl-PPant to apo-ACP using Bacillus subtilis Sfp PPant transferase”.

B1: BjaI (Bradyrhizobium diazoefficiens USDA 110) (protein)
chain: MIHAISAVNRHLYEDVLEQHFRLRHDIFVEERHWETLRRPDGREVDSYDDEDTVYLLALEGRRVVGGHRLYPTTKPSMMSEVFPHLAAVRGCPSDPLIWEWSRYFVVRDRRDGALNLQLMAAVQEFCLDQGIAQVSAIMETWWLPRFHEAGFVVTPLGLPALVENAWTMAATVDIRRQTLDVLHDRIGMPSIVQQDGPRLDAVARANLCGLAAAQRKSA
Regarding B1, the Michaelis constant (Km) in “purified protein [1]” was 39 ± 4 µM. In addition, in “purified protein [2]”, the Michaelis constant (Km) came out at 7.0 ± 0.5 µM, the kcat is 0.021 ± 0.03 s⁻¹ and the kcat/Km is 3000 M⁻¹ s⁻¹.

By Ki is commonly meant the dissociation constant of the complex between target and ligand, obtained from inhibition or displacement. A low value points to tighter binding. In general, Km refers to the concentration of substrate that gives half-maximal velocity. The kcat is the number of substrate molecules converted per active site and unit of time at saturation. For orientation: kcat/Km means the second-order rate constant that governs catalysis at low substrate concentration.

For the origin of these results see paper PMC4234381, “Evolution of Acyl-Substrate Recognition by a Family of Acyl-Homoserine Lactone Synthases” (PLoS ONE, 2014).
